Here are results for one molecule from publication PMC8205012, “Novel CD123 polyaptamer hydrogel edited by Cas9/sgRNA for AML-targeted therapy”.

The data set deals with Cas9 (UniProt Q99ZW2 1-1368). The data set can be described thus: flow cytometry, Cas9 beads; Cell binding: 1e5 cells, 50 nM (flow) or 5 uM (confocal) FAM-DNA, 37 C, 30 min, PBS wash; bead assays: beads washed in PBS, binding buffer and temperature not stated. To be noted: protein: commercial; label: FAM. On the technique in general: In flow cytometry, cells or beads pass a laser one at a time.
Cas9, sequence (Q99ZW2 whole entry): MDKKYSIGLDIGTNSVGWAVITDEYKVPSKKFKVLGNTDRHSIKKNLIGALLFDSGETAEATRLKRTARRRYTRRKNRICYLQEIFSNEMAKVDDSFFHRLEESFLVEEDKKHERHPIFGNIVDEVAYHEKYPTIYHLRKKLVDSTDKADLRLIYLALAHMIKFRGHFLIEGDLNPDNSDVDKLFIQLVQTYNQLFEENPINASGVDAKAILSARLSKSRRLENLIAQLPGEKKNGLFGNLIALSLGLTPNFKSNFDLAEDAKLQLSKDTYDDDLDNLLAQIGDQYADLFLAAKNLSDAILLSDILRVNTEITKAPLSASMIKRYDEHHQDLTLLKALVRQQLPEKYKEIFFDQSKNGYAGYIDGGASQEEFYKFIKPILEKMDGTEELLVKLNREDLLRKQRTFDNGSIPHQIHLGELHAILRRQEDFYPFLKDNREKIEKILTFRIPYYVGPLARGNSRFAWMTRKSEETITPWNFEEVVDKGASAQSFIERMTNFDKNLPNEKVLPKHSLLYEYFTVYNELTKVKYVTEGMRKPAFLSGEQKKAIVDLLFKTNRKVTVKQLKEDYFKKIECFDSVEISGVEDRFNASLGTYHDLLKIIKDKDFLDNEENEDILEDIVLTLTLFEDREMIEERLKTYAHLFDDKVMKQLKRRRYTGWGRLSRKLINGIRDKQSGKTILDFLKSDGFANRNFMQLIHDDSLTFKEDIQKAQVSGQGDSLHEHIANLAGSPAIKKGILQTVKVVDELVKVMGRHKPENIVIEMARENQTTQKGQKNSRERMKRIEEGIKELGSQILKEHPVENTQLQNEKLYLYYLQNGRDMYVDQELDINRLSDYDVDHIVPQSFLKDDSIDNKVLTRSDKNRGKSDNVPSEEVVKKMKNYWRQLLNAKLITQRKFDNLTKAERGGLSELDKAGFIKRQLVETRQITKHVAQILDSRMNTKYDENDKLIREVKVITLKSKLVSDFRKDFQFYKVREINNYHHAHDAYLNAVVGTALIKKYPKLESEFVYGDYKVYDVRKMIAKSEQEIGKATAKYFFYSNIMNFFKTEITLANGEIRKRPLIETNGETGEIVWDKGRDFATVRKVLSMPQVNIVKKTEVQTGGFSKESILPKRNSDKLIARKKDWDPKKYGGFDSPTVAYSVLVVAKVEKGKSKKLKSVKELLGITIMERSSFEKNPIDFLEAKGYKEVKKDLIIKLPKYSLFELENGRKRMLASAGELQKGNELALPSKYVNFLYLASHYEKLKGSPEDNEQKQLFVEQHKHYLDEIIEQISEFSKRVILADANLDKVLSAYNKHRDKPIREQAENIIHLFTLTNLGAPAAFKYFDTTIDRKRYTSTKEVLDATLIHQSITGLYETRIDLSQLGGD

B1: sgRNA (structured_RNA)
RNA: GGUGGUGCAGAUGAACUUCAGUUUUAGAGCUAGAAAUAGCAAGUUAAAAUAAGGCUAGUCCGUUAUCAACUUGAAAAAGUGGCACCGAGUCGGUGCUUUU
For the molecule B1, the binding result is “binds”.
